{
  "source": "paper PMC7672443",
  "about": "“Structural basis of the XPB helicase–Bax1 nuclease complex interacting with the repair bubble DNA” (Nucleic Acids Research, 2020)",
  "binders": {"B1": {"name": "bubble-6 DNA (crystal) (dsDNA)", "DNA 1": "TTGACTCAACATCCTTTGCTACAA", "DNA 2": "ATTGTAGGTTTCCATGTTGAGTCA"}, "B2": {"name": "forked DNA (dsDNA)", "DNA 1": "TAGTCACAGCTGATTGCGCTCTGCTCCATAGT", "DNA 2": "TGATACTTCGAGAGCGCAATCAGCTGTGACTA"}, "B3": {"name": "bubble-5 DNA (dsDNA)", "DNA 1": "B2 DNA 1 with G16T, C17T, G18T", "DNA 2": "ACTATGGAGCAGAGTTTTTTCAGCTGTGACTA"}},
  "key": {"StXPB;StBax1ΔC [1]": {"target": "T1, StXPB;StBax1ΔC (Sulfurisphaera tokodaii;Sulfurisphaera …, UniProt Q970I2;Q970I1 2-439;2-373, |)", "T1 sequence 1": "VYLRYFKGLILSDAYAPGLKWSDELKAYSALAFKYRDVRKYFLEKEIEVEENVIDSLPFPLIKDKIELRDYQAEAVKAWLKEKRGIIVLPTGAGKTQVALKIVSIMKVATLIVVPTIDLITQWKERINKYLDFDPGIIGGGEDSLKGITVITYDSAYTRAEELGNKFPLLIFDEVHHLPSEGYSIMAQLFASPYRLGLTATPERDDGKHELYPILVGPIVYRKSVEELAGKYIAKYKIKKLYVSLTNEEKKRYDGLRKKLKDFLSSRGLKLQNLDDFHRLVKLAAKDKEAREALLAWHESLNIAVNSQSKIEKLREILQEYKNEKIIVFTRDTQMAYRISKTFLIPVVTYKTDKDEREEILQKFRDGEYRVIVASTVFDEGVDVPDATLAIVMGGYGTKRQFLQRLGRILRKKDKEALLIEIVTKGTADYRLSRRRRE", "T1 sequence 2": "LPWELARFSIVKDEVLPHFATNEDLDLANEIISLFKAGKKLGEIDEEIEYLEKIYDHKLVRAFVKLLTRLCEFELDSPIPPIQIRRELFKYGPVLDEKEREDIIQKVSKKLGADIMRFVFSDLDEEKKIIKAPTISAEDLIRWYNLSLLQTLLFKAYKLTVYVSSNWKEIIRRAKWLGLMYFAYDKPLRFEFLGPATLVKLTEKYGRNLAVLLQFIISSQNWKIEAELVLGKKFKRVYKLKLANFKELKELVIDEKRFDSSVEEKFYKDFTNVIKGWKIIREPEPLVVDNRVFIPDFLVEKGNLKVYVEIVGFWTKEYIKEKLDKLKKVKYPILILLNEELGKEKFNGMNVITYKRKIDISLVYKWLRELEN", "experiment": "crystal structure 3.55 Å; 10 mM MgCl2, MES pH 5.3, MPD; ATP-free; EMSA: 25 mM Tris-Cl pH 7.5, 100 mM NaCl, 5% glycerol, 1 mM DTT, room temperature 40 min; 0.8 uM forked DNA or 0.3 uM bubble DNA; 4% TBE native gel, ethidium bromide", "settings": "protein: recombinant;recombinant; tags: N-terminal His8 (PreScission; removed);none stated (pET15b; copurified with His8-XPB); copies: 1;1; 24 bp with 6 nt unpaired region; 6 bp short arm unwound in crystal"}, "StXPB;StBax1ΔC [2]": {"target": "T1, StXPB;StBax1ΔC", "experiment": "EMSA; EMSA: 25 mM Tris-Cl pH 7.5, 100 mM NaCl, 5% glycerol, 1 mM DTT, room temperature 40 min; 0.8 uM forked DNA or 0.3 uM bubble DNA; 4% TBE native gel, ethidium bromide", "settings": "protein: recombinant;recombinant; tags: N-terminal His8 (PreScission; removed);none stated (pET15b; copurified with His8-XPB); copies: 1;1; fork: 22 bp duplex, 10 nt arms"}, "StXPB;StBax1": {"target": "T2, StXPB;StBax1 (Sulfurisphaera tokodaii;Sulfurisphaera …, UniProt Q970I2;Q970I1 2-439;1-481, |)", "T2 sequence 1": "T1 sequence 1", "T2 sequence 2": "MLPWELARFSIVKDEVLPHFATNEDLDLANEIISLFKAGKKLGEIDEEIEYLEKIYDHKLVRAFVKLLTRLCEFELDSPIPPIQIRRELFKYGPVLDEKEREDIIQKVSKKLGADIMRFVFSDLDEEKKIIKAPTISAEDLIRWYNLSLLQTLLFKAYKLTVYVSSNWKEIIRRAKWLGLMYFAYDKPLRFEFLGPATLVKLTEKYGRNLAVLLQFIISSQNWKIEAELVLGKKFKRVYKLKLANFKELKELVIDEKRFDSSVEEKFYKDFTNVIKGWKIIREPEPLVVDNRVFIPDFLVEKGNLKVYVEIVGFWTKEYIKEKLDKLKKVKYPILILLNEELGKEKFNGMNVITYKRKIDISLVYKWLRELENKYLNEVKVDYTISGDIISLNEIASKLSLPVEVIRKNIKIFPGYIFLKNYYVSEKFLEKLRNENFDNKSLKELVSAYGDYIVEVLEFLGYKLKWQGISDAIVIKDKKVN", "experiment": "EMSA; EMSA: 25 mM Tris-Cl pH 7.5, 100 mM NaCl, 5% glycerol, 1 mM DTT, room temperature 40 min; 0.8 uM forked DNA or 0.3 uM bubble DNA; 4% TBE native gel, ethidium bromide", "settings": "protein: recombinant;recombinant; tags: N-terminal His8 (PreScission; removed);; copies: 1;1; fork: 22 bp duplex, 10 nt arms"}, "[3]": {"target": "human XPB;human p52;human p8;human XPA (human;human;human;human, UniProt P19447;Q92759;Q6ZYL4;P23025 1-782;1-462;1-71;1-273, |||)", "sequence (P19447 whole entry, chain 1 of 4)": "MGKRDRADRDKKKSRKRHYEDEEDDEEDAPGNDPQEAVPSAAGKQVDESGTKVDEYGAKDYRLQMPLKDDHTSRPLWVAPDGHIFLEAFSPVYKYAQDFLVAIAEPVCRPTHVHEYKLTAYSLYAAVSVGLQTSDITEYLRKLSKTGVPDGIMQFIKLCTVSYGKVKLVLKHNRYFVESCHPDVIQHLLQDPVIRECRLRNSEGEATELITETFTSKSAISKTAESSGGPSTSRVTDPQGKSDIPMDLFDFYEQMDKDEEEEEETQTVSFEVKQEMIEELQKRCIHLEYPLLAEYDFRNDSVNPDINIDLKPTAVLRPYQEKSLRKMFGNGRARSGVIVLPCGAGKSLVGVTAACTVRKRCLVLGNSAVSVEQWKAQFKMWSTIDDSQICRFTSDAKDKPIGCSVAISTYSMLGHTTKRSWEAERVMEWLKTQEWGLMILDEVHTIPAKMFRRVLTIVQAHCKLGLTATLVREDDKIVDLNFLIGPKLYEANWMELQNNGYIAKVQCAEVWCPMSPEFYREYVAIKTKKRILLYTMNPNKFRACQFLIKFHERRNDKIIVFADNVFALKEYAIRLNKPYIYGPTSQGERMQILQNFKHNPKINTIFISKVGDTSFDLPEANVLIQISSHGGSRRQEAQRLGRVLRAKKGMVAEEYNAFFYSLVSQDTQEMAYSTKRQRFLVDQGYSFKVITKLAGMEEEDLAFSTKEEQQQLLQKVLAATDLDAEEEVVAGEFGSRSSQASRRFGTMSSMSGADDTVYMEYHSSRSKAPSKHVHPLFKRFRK", "sequence (Q92759 whole entry, chain 2 of 4)": "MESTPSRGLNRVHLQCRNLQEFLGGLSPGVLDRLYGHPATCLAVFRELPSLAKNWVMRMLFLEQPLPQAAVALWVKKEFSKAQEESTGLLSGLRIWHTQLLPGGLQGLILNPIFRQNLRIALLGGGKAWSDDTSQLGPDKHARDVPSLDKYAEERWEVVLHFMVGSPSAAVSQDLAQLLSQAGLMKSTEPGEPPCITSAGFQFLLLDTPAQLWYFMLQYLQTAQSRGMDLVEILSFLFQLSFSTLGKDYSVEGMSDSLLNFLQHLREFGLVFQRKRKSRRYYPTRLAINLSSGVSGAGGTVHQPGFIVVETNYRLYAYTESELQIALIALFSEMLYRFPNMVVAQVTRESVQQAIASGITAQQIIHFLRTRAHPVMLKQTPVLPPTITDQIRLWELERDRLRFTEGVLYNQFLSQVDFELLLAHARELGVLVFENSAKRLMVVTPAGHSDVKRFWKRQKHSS", "sequence (Q6ZYL4 whole entry, chain 3 of 4)": "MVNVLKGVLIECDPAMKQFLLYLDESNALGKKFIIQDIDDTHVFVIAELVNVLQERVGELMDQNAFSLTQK", "sequence (P23025 whole entry, chain 4 of 4)": "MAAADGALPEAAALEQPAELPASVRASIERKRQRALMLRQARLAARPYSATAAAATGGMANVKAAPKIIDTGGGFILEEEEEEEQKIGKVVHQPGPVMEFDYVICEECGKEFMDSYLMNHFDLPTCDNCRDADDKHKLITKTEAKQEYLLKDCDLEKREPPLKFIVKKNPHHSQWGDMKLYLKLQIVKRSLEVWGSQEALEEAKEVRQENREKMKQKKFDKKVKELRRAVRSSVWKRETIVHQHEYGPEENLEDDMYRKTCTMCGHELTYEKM", "experiment": "EMSA; stable complex; EMSA: 25 mM Tris-Cl pH 7.5, 100 mM NaCl, 5% glycerol, 1 mM DTT, room temperature 40 min; 0.8 uM forked DNA or 0.3 uM bubble DNA; 4% TBE native gel, ethidium bromide", "settings": "protein: recombinant;recombinant;recombinant;recombinant; tags: N-terminal His6 (PreScission; removed);;;N-terminal His6-SUMO (removed); copies: 1;1;1;1; fork: 22 bp duplex, 10 nt arms"}, "StXPB F278A": {"target": "T3, StXPB F278A (Sulfurisphaera tokodaii, UniProt Q970I2 2-439, F278A)", "T3 sequence": "T1 sequence 1 with F277A", "experiment": "EMSA; no noticeable effect versus WT; EMSA: 25 mM Tris-Cl pH 7.5, 100 mM NaCl, 5% glycerol, 1 mM DTT, room temperature 40 min; 0.8 uM forked DNA or 0.3 uM bubble DNA; 4% TBE native gel, ethidium bromide", "settings": "protein: recombinant; tags: N-terminal His8 (removed); 32 nt strands, blunt, internal 5 nt T:T mismatch bubble"}},
  "note": "Numbering of substitutions follows the chain as printed.",
  "data": [
    {"binder": "B1", "values": [
      {"measurement": "binding result", "setting": "StXPB;StBax1ΔC [1]", "result": "binds"}
    ]},
    {"binder": "B2", "values": [
      {"measurement": "binding result", "setting": "StXPB;StBax1ΔC [2]", "result": "binds"},
      {"measurement": "binding result", "setting": "StXPB;StBax1", "result": "binds"},
      {"measurement": "binding result", "setting": "[3]", "result": "binds"}
    ]},
    {"binder": "B3", "values": [
      {"measurement": "binding result", "setting": "StXPB F278A", "result": "binds"}
    ]}
  ]
}
